Assay results published in patent US20120082682A1 (GlaxoSmithKline, published 2012).

B1: A1D98GluL1 (antibody, human IgG1, kappa, V domains shown)
VH: QVQLVQSGAEVKKPGSSVKVSCKASGFYIKDTYMHWVRQAPGQGLEWMGTIDPANGNTKYVPKFQGRVTITADESTSTAYMELSSLRSEDTAVYYCARSIYEDYHYDDYYAMDYWGQGTLVTVSS
VL: DIVMTQSPLSLPVTPGEPASISCRSSQNIVHINGNTYLEWYLQKPGQSPRLLIYKISDRFSGVPDRFSGSGSGTDFTLKISRVEADDVGIYYCFQGSHVPWTFGQGTKLEIKR
notes: CDRH3 variant of A1L1
B2: A1H100A AlaL1 (antibody, human IgG1, kappa, V domains shown)
VH: QVQLVQSGAEVKKPGSSVKVSCKASGFYIKDTYMHWVRQAPGQGLEWMGTIDPANGNTKYVPKFQGRVTITADESTSTAYMELSSLRSEDTAVYYCARSIYDDYAYDDYYAMDYWGQGTLVTVSS
VL: DIVMTQSPLSLPVTPGEPASISCRSSQNIVHINGNTYLEWYLQKPGQSPRLLIYKISDRFSGVPDRFSGSGSGTDFTLKISRVEADDVGIYYCFQGSHVPWTFGQGTKLEIKR
notes: CDRH3 variant of A1L1
B3: A1H100A ArgL1 (antibody, human IgG1, kappa, V domains shown)
VH: QVQLVQSGAEVKKPGSSVKVSCKASGFYIKDTYMHWVRQAPGQGLEWMGTIDPANGNTKYVPKFQGRVTITADESTSTAYMELSSLRSEDTAVYYCARSIYDDYRYDDYYAMDYWGQGTLVTVSS
VL: DIVMTQSPLSLPVTPGEPASISCRSSQNIVHINGNTYLEWYLQKPGQSPRLLIYKISDRFSGVPDRFSGSGSGTDFTLKISRVEADDVGIYYCFQGSHVPWTFGQGTKLEIKR
notes: CDRH3 variant of A1L1
B4: A1H100A GlnL1 (antibody, human IgG1, kappa, V domains shown)
VH: QVQLVQSGAEVKKPGSSVKVSCKASGFYIKDTYMHWVRQAPGQGLEWMGTIDPANGNTKYVPKFQGRVTITADESTSTAYMELSSLRSEDTAVYYCARSIYDDYQYDDYYAMDYWGQGTLVTVSS
VL: DIVMTQSPLSLPVTPGEPASISCRSSQNIVHINGNTYLEWYLQKPGQSPRLLIYKISDRFSGVPDRFSGSGSGTDFTLKISRVEADDVGIYYCFQGSHVPWTFGQGTKLEIKR
notes: CDRH3 variant of A1L1
B5: A1H100A GluL1 (antibody, human IgG1, kappa, V domains shown)
VH: QVQLVQSGAEVKKPGSSVKVSCKASGFYIKDTYMHWVRQAPGQGLEWMGTIDPANGNTKYVPKFQGRVTITADESTSTAYMELSSLRSEDTAVYYCARSIYDDYEYDDYYAMDYWGQGTLVTVSS
VL: DIVMTQSPLSLPVTPGEPASISCRSSQNIVHINGNTYLEWYLQKPGQSPRLLIYKISDRFSGVPDRFSGSGSGTDFTLKISRVEADDVGIYYCFQGSHVPWTFGQGTKLEIKR
notes: CDRH3 variant of A1L1
B6: A1H100A SerL1 (antibody, human IgG1, kappa, V domains shown)
VH: QVQLVQSGAEVKKPGSSVKVSCKASGFYIKDTYMHWVRQAPGQGLEWMGTIDPANGNTKYVPKFQGRVTITADESTSTAYMELSSLRSEDTAVYYCARSIYDDYSYDDYYAMDYWGQGTLVTVSS
VL: DIVMTQSPLSLPVTPGEPASISCRSSQNIVHINGNTYLEWYLQKPGQSPRLLIYKISDRFSGVPDRFSGSGSGTDFTLKISRVEADDVGIYYCFQGSHVPWTFGQGTKLEIKR
notes: CDRH3 variant of A1L1
B7: A1H100A ThrL1 (antibody, human IgG1, kappa, V domains shown)
VH: QVQLVQSGAEVKKPGSSVKVSCKASGFYIKDTYMHWVRQAPGQGLEWMGTIDPANGNTKYVPKFQGRVTITADESTSTAYMELSSLRSEDTAVYYCARSIYDDYTYDDYYAMDYWGQGTLVTVSS
VL: DIVMTQSPLSLPVTPGEPASISCRSSQNIVHINGNTYLEWYLQKPGQSPRLLIYKISDRFSGVPDRFSGSGSGTDFTLKISRVEADDVGIYYCFQGSHVPWTFGQGTKLEIKR
notes: CDRH3 variant of A1L1
B8: A1H100A ValL1 (antibody, human IgG1, kappa, V domains shown)
VH: QVQLVQSGAEVKKPGSSVKVSCKASGFYIKDTYMHWVRQAPGQGLEWMGTIDPANGNTKYVPKFQGRVTITADESTSTAYMELSSLRSEDTAVYYCARSIYDDYVYDDYYAMDYWGQGTLVTVSS
VL: DIVMTQSPLSLPVTPGEPASISCRSSQNIVHINGNTYLEWYLQKPGQSPRLLIYKISDRFSGVPDRFSGSGSGTDFTLKISRVEADDVGIYYCFQGSHVPWTFGQGTKLEIKR
notes: CDRH3 variant of A1L1
B9: A1I96ValL1 (antibody, human IgG1, kappa, V domains shown)
VH: QVQLVQSGAEVKKPGSSVKVSCKASGFYIKDTYMHWVRQAPGQGLEWMGTIDPANGNTKYVPKFQGRVTITADESTSTAYMELSSLRSEDTAVYYCARSVYDDYHYDDYYAMDYWGQGTLVTVSS
VL: DIVMTQSPLSLPVTPGEPASISCRSSQNIVHINGNTYLEWYLQKPGQSPRLLIYKISDRFSGVPDRFSGSGSGTDFTLKISRVEADDVGIYYCFQGSHVPWTFGQGTKLEIKR
notes: CDRH3 variant of A1L1
B10: A1S95TrpL1 (antibody, human IgG1, kappa, V domains shown)
VH: QVQLVQSGAEVKKPGSSVKVSCKASGFYIKDTYMHWVRQAPGQGLEWMGTIDPANGNTKYVPKFQGRVTITADESTSTAYMELSSLRSEDTAVYYCARWIYDDYHYDDYYAMDYWGQGTLVTVSS
VL: DIVMTQSPLSLPVTPGEPASISCRSSQNIVHINGNTYLEWYLQKPGQSPRLLIYKISDRFSGVPDRFSGSGSGTDFTLKISRVEADDVGIYYCFQGSHVPWTFGQGTKLEIKR
notes: CDRH3 variant of A1L1
B11: A1Y97PheL1 (antibody, human IgG1, kappa, V domains shown)
VH: QVQLVQSGAEVKKPGSSVKVSCKASGFYIKDTYMHWVRQAPGQGLEWMGTIDPANGNTKYVPKFQGRVTITADESTSTAYMELSSLRSEDTAVYYCARSIFDDYHYDDYYAMDYWGQGTLVTVSS
VL: DIVMTQSPLSLPVTPGEPASISCRSSQNIVHINGNTYLEWYLQKPGQSPRLLIYKISDRFSGVPDRFSGSGSGTDFTLKISRVEADDVGIYYCFQGSHVPWTFGQGTKLEIKR
notes: CDRH3 variant of A1L1
B12: BPC3214 (bispecific antibody, human IgG1, kappa)
heavy: not shown
light: DIQMTQSPSSLSASVGDRVTITCRSSQNIVHINGNTYLEWYQQKPGKAPKLLIYKISDRFSGVPSRFSGSGSGTDFTLTISSLQPEDFATYYCFQGSHVPWTFGQGTKLEIKRTVAAPSVFIFPPSDEQLKSGTASVVCLLNNFYPREAKVQWKVDNALQSGNSQESVTEQDSKDSTYSLSSTLTLSKADYEKHKVYACEVTHQGLSSPVTKSFNRGEC
notes: mAbdAb with the re-humanised light chain P0
B13: BPC3215 (bispecific antibody, human IgG1, kappa)
heavy: not shown
light: DVLMTQSPSSLSASVGDRVTITCRSSQNIVHINGNTYLEWYQQKPGKAPKLLIYKISDRFSGVPSRFSGSGSGTDFTLTISSLQPEDFATYYCFQGSHVPWTFGQGTKLEIKRTVAAPSVFIFPPSDEQLKSGTASVVCLLNNFYPREAKVQWKVDNALQSGNSQESVTEQDSKDSTYSLSSTLTLSKADYEKHKVYACEVTHQGLSSPVTKSFNRGEC
notes: mAbdAb with the re-humanised light chain P1

Key:
[1] = biological target: T1, human IL-13 (recombinant E. coli-expressed) (human, UniProt P35225 35-146); test: ProteOn XPR36 SPR, mAb (supernatant) captured on anti-human IgG, IL13 analyte, 1:1 fit
T1 construct: also called hIL-13
T1 sequence (P35225 other isoform, or with tags, fused parts or gaps limits assumed): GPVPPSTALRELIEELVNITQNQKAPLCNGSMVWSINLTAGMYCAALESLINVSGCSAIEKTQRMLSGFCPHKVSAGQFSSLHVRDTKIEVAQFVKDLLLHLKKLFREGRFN
Protocol: The initial screen of CDRH3 mutants was carried out on the ProteOn XPR36 (Biorad). […] 3M MgCl₂ was used to regenerate the capture surface, removing the bound CDRH3 mutant antibodies ready for another cycle of capture and analyte injection. The data was fitted to the 1:1 model using the software inherent to the machine.

[2] = biological target: T1, human IL-13 (recombinant E. …); test: Biacore T100 SPR, mAb (supernatant) captured on anti-human IgG, IL13 analyte, 1:1 fit
Source text: Table 1 details the overall affinities (equilibrium dissociation constant KD) for the selected constructs from the ProteOn screen and the T100 run

[3] = biological target: T1, human IL-13 (recombinant E. …); test: Biacore T100 SPR, Protein A capture (CM5), human IL13 analyte, 1:1 fit
Protocol: (§1) Protein A was immobilised on a CM5 chip by primary amine coupling; this surface was used as a capture surface for the antibody molecules to be tested. […] All binding curves were double referenced with a 0 nM injection (i.e. buffer alone).
(§2) Regeneration of the Protein A surface was with 50 mM NaOH. The assay was run at 25° C. using HBS-EP as running buffer. The data was fitted to 1:1 model inherent to the Biacore T100 analysis software.

[4] = biological target: T2, cyno IL-13 (recombinant E. coli-expressed) (cynomolgus, UniProt Q0PW92 21-132); test: Biacore T100 SPR, Protein A capture (CM5), cyno IL13 analyte, 1:1 fit; 'Impossible off-rates'
T2 construct: also called cynomolgus IL-13
Protocol: as §1, §2

| Binder | Kd [1] [nM] | Kd [2] [nM] | other results |
| --- | --- | --- | --- |
| B1 | 0.873 | 0.779 |  |
| B2 |  | 0.172 |  |
| B3 | 0.256 | 0.307 |  |
| B4 | 0.195 | 0.278 |  |
| B5 | 0.11 | 0.195 |  |
| B6 | 0.131 | 0.174 |  |
| B7 | 0.158 | 0.211 |  |
| B8 | 0.112 | 0.152 |  |
| B9 | 0.395 | 0.696 |  |
| B10 |  | 0.216 |  |
| B11 | 0.683 | 0.618 |  |
| B12 |  |  | Kd [3]: 0.093 nM; koff [3]: 7.18e-05 s⁻¹; kon [3]: 775000 M⁻¹ s⁻¹; Kd [4]: < 0.0311 nM; koff [4]: < 1e-05 s⁻¹; kon [4]: 321000 M⁻¹ s⁻¹ |
| B13 |  |  | Kd [3]: 0.064 nM; koff [3]: 5.23e-05 s⁻¹; kon [3]: 822000 M⁻¹ s⁻¹; Kd [4]: 0.00955 nM; koff [4]: 3.13e-06 s⁻¹; kon [4]: 328000 M⁻¹ s⁻¹ |
